Experimental data as given in paper PMC9133088.

Experiments:
[1] = lysosomal fractionation, glucose starvation; settings: glycan lost; control: control siRNA
[2] = immunoprecipitation and phospho-S720 immunoblot; settings: glycan lost
[3] = lysosomal fractionation, leucine added without glucose; settings: glycan lost; control: overexpressed WT LARS1
[4] = RagD GTP hydrolysis, GTP-agarose pulldown, glucose-starved cells; settings: glycan lost; control: overexpressed WT LARS1
[5] = LARS1 immunoprecipitation, immunoblot, knock-in cells; settings: glycan lost; control: WT SW620 cells, glucose starvation
[6] = lysosomal fractionation, knock-in cells, glucose starvation; settings: glycan lost; control: WT SW620 cells
[7] = near-UV circular dichroism; settings: glycan lost; control: WT LARS1, same OGT1 condition
[8] = in vitro GTPase assay, GTP-agarose pulldown; settings: glycan lost; control: unmodified WT LARS1 with ATP and leucine
[9] = control: control siRNA, glucose starvation

leucyl-tRNA synthetase 1 (LARS1): GFPT1 siRNA
localisation_or_trafficking [1]: increases
other: S720 phosphorylation by ULK1 [2, 9]: decreases

leucyl-tRNA synthetase 1 (LARS1): OGT1 siRNA
other: S720 phosphorylation by ULK1 [2, 9]: decreases

leucyl-tRNA synthetase 1 (LARS1): S1042A
other: S720 phosphorylation by ULK1 ([2]; control: overexpressed WT LARS1, glucose starvation): abolishes
localisation_or_trafficking [3]: increases
enzymatic_activity [4]: increases

leucyl-tRNA synthetase 1 (LARS1): S1042A knock-in
other: S720 phosphorylation by ULK1 [5]: decreases
localisation_or_trafficking [6]: increases

leucyl-tRNA synthetase 1 (LARS1): S1042A with OGT1
structure_or_conformation [7]: changes

leucyl-tRNA synthetase 1 (LARS1): S1042A without OGT1
structure_or_conformation [7]: no change

leucyl-tRNA synthetase 1 (LARS1): S1042A ± OGT1
enzymatic_activity [8]: no change
